Measured values reported in article PMC11551749.
Where two headings read alike, the source gives them in different places.

Tests used:
[1] = biological target: T1, RPA heterotrimer (RPA1/RPA2/RPA3) (human, UniProt P27694;P15927;P35244 1-616;1-270;1-121); assay: bulk FRET
RPA-E240K heterotrimer = RPA-E240K heterotrimer (human, UniProt P27694;P15927;P35244 1-616;1-270;1-121, E240K); assay: mass photometry
[2] = biological target: T1, RPA heterotrimer (RPA1/RPA2/RPA3); assay: mass photometry
hnRNPA1 [3] = biological target: T2, hnRNPA1 (human, UniProt P09651 1-372); assay: bulk FRET
T2 sequence (P09651 whole entry): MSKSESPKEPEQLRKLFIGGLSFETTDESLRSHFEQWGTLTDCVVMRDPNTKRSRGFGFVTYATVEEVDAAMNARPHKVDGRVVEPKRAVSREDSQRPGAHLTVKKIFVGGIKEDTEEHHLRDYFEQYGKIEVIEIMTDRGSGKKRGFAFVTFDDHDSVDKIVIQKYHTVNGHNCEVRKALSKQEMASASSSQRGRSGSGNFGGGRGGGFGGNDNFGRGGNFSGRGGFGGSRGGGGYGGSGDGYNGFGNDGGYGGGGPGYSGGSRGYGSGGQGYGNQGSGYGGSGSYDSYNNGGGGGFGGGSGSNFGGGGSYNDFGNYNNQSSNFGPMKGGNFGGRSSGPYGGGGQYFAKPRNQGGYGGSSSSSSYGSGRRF

[4] = biological target: T1, RPA heterotrimer (RPA1/RPA2/RPA3); assay: EMSA
hnRNPA1 [5] = biological target: T2, hnRNPA1; assay: bulk FRET; remark: listed apart in the source
[6] = biological target: hnRNPA1;RPA-E240K heterotrimer (human;human, UniProt P09651;P27694;P15927;P35244 1-372;1-616;1-270;1-121, |E240K); assay: bulk FRET
Sequence of hnRNPA1;RPA-E240K heterotrimer (P09651 whole entry, chain 1 of 4): as the sequence (P09651 whole entry) above
Sequence of hnRNPA1;RPA-E240K heterotrimer (P27694 whole entry E240K, chain 2 of 4): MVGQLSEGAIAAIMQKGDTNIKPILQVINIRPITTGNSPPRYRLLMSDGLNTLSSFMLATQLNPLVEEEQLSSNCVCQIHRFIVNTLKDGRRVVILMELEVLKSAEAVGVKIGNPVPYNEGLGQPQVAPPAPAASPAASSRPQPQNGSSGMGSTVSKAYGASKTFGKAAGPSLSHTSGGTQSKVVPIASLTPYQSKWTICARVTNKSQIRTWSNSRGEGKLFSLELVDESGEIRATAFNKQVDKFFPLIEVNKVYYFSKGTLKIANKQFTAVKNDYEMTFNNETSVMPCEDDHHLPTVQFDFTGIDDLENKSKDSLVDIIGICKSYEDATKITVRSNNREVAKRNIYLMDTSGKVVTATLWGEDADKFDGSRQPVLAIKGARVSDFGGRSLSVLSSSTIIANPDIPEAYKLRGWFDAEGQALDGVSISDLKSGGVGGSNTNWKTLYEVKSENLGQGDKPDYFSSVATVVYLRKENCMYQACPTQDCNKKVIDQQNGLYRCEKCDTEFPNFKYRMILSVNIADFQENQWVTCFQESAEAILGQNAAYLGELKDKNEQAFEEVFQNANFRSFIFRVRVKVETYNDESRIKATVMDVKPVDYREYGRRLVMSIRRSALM
Sequence of hnRNPA1;RPA-E240K heterotrimer (P15927 whole entry, chain 3 of 4): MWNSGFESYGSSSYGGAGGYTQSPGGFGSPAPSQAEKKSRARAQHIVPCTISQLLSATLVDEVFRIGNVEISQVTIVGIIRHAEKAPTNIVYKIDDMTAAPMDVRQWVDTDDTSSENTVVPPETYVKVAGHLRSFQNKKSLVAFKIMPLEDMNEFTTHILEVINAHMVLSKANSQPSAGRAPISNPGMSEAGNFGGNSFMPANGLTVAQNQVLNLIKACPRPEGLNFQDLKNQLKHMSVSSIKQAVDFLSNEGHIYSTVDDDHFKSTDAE
Sequence of hnRNPA1;RPA-E240K heterotrimer (P35244 whole entry, chain 4 of 4): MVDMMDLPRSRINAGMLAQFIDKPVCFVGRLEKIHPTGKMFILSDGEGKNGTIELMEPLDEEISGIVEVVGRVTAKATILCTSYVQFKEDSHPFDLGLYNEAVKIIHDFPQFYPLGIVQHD

[7] = biological target: hnRNPA1;RPA heterotrimer (RPA1/RPA2/RPA3) (human;human, UniProt P09651;P27694;P15927;P35244 1-372;1-616;1-270;1-121, |); assay: bulk FRET
Sequence of hnRNPA1;RPA heterotrimer (RPA1/RPA2/RPA3) (P09651 whole entry, chain 1 of 4): as the sequence (P09651 whole entry) above
Sequence of hnRNPA1;RPA heterotrimer (RPA1/RPA2/RPA3) (P27694 whole entry, chain 2 of 4): as the sequence (P27694 whole entry E240K, chain 2 of 4) above, with K240E counted along it
Sequence of hnRNPA1;RPA heterotrimer (RPA1/RPA2/RPA3) (P15927 whole entry, chain 3 of 4): as the sequence (P15927 whole entry, chain 3 of 4) above
Sequence of hnRNPA1;RPA heterotrimer (RPA1/RPA2/RPA3) (P35244 whole entry, chain 4 of 4): as the sequence (P35244 whole entry, chain 4 of 4) above

T1 sequence (P27694 whole entry, chain 1 of 3): as the sequence (P27694 whole entry E240K, chain 2 of 4) above, with K240E counted along it
T1 sequence (P15927 whole entry, chain 2 of 3): as the sequence (P15927 whole entry, chain 3 of 4) above
T1 sequence (P35244 whole entry, chain 3 of 3): as the sequence (P35244 whole entry, chain 4 of 4) above
Sequence of RPA-E240K heterotrimer (P27694 whole entry E240K, chain 1 of 3): as the sequence (P27694 whole entry E240K, chain 2 of 4) above
Sequence of RPA-E240K heterotrimer (P15927 whole entry, chain 2 of 3): as the sequence (P15927 whole entry, chain 3 of 4) above
Sequence of RPA-E240K heterotrimer (P35244 whole entry, chain 3 of 3): as the sequence (P35244 whole entry, chain 4 of 4) above

TGGGGAGGGTGGGGAGGGTGGGGAAGG (structured_DNA) [PU27G4]: binds [1].

AGGGGCGGGCGCTTTAGGAAAAGGGCGGGT (structured_DNA) [BCL-2G4 1245]: binds [1].

TTAGGGTTAGGGTTAGGGTTAGGGTTAGGG (structured_DNA) [h-telG4 (MP)]: binds (RPA-E240K heterotrimer); binds [2].

TTTTTTTTTTTTTTTTTTTTTTTTTTTTTT (ssDNA) [dT30]: binds [1].

In the case of TTAGGGTTAGGGTTA (ssDNA) [h-tel-15(FRET)], the Kd (hnRNPA1 [3]) is reported as 73.5 ± 4.3 nM.

TTAGGGTTAGGGTTAGGGTTAGGGTTAGGG (structured_DNA) [h-telG4 (FRET), five telomeric repeats] was tested, and the binding result [4] was “binds”, the Kd (hnRNPA1 [5]) was 20.6 ± 3.5 nM and the Kd [6] was 75.9 ± 25.5 nM. For the same binder, the Kd [7] was 27.4 ± 2.7 nM.
